Measurements: paper PMC8514580, “Insight into the interaction between the RNA helicase CGH-1 and EDC-3 and its implications” (Scientific Reports, 2021)
Residue numbers refer to the chain shown, from its start.

Tests used:
Assay in all cases: ITC; ligand (peptide or CAR-1 fragment, 0.5 mM) injected into CGH-1_(248-420) or mutant (0.05 mM) in the cell; 20 °C; Buffer B (20 mM Tris-HCl pH 7.5, 150 mM NaCl); one-binding-site model
Settings in all cases: both partners purified
[1] = molecular target: T1, CGH-1_(248–420) 4A mutant (His269, Cys270, Thr273 and Leu274 to Ala) (C. elegans, UniProt Q95YF3 248-420, His269 to Ala | Cys270 to Ala | Thr273 to Ala | Leu274 to Ala)
T1 construct: Mutant of m1 made with the MutanBEST kit; also called four-alanine mutant; source: E. coli Gold (DE3), purified (Ni-chelating resin, SEC Superdex 75)
T1 sequence (looked up): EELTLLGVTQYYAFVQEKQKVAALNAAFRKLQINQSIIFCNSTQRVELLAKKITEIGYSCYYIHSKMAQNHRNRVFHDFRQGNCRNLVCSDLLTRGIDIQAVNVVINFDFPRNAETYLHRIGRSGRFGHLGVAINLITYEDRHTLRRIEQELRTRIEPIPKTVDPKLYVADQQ

CGH-1_(248–420) F261A = molecular target: T2, CGH-1_(248–420) F261A (C. elegans, UniProt Q95YF3 248-420, F261A)
T2 construct: Mutant of m1 made with the MutanBEST kit; source: E. coli Gold (DE3), purified (Ni-chelating resin, SEC Superdex 75)
T2 sequence (looked up): T1 sequence (looked up) with F14A, A22H, A23C, A26T, A27L

CGH-1_(248–420) V262A = molecular target: T3, CGH-1_(248–420) V262A (C. elegans, UniProt Q95YF3 248-420, V262A)
T3 construct: Mutant of m1 made with the MutanBEST kit; source: E. coli Gold (DE3), purified (Ni-chelating resin, SEC Superdex 75)
T3 sequence (looked up): T1 sequence (looked up) with V15A, A22H, A23C, A26T, A27L

[2] = molecular target: T4, CGH-1_(248–420) wild type (CGH-1 RecA2 domain) (C. elegans, UniProt Q95YF3 248-420)
T4 construct: Cloned into NdeI/XhoI of a modified pET-28a in which the thrombin cleavage site was removed; also called CGH-1_248-420^WT; source: E. coli Gold (DE3), purified (Ni-chelating resin, SEC Superdex 75)
T4 sequence (looked up): T1 sequence (looked up) with A22H, A23C, A26T, A27L

B1: PATR-1 peptide (CePATR-1_(30–67)) (peptide)
peptide: SDEDHNIFDDEFDAANDETFGGGLDNIGENAELENYAT
notes: PATR-1 (Pat1 ortholog), C. elegans, residues 30-67; Printed with free NH2 and COOH ends; also called PATR1_30-67^WT; CePATR-1 peptide; source: synthetic peptide (GL Biochem, Shanghai)
[1]
  Kd: 2.06 ± 0.27 µM
  dH: -15.4 ± 0.44 kcal/mol
  stoichiometry N: 0.79
CGH-1_(248–420) F261A
  Kd: 6.62 ± 1.05 µM
  dH: -13 ± 0.7 kcal/mol
  stoichiometry N: 0.76
CGH-1_(248–420) V262A
  Kd: 4.94 ± 0.79 µM
  dH: -17.3 ± 0.82 kcal/mol
  stoichiometry N: 0.84
[2]
  Kd: 2.13 ± 0.38 µM
  dH: -15.8 ± 0.62 kcal/mol
  stoichiometry N: 0.88
